Experimental data as given in paper PMC5339894, “G196 epitope tag system: a novel monoclonal antibody, G196, recognizes the small, soluble peptide DLVPR with high affinity” (Scientific Reports, 2017).
Where no end group is shown, it is not given here.

What was measured:
[1] = tested on: mAb G196; assay: Western blot epitope mapping of bacterially expressed GST proteins with mAb G196; format: binding, mouse; conditions: purified or bacterially expressed GST proteins, SDS-PAGE, denaturing conditions
Description: To confirm that the G196 epitope is located on the C-terminal extension of the 4T-2 fragment, and to further determine the precise location of the G196 mAb epitope, double-stranded oligonucleotides encoding peptides containing the C-terminal extension were inserted into the BamHI/EcoRI restriction sites within the pGEX-6P-1 vector. Total protein lysates were prepared from Escherichia coli that had been transformed with individual GST fusion protein constructs.
All short 4T-2 fragments were generated by annealing complementary oligos. The oligos used to synthesize the indicated fragments are summarized (Fasmac, Kanagawa, Japan) in Supplementary Table 2. Annealing reaction mixtures contained equimolar amounts of each oligo and the reactions were performed in a thermal cycler, with initial denaturation at 98 °C for 3 min, followed by a temperature decrease of 2 °C every 20 s down to 4 °C to allow the oligos to anneal slowly. The oligos contained the BamHI/EcoRI restriction sites and the 4T-2 fragments were cloned into these restriction sites within the pGEX-6P-1 vector (GE Healthcare, Buckinghamshire, England).
A fragment of the GST gene, encoding residues 2–212, was prepared by polymerase chain reaction (PCR) amplification using the Pfu polymerase (BioAcademia) and the pGEX-6P-1 plasmid as the template. […]

[2] = tested on: anti-FLAG M2 mAb affinity column; conditions: mild pH (pH 3.5–4.4); cited from earlier work
From the text: Previously, we studied the subcellular localization of myocardin-related transcription factor (MRTF)-B, a shuttle protein between the nucleus and cytoplasm that is expressed in response to various stimuli.

[3] = target: T1, synthetic peptide GSDLVPRGS (synthetic); assay: ITC; VP-ITC, 25 C; cell: 25 uM G196 Fab in 20 mM Tris-HCl (pH 8.0), 150 mM NaCl; peptide (500 uM) injected; single-site model; conditions: both partners purified
T1 construct: source: synthetic peptide (Tufts University Core Facility)
T1 chain: GSDLVPRGS

In the case of “6P-12: GST fusion protein with C-terminal extension fragment inserted in pGEX-6P-1 ({GST}-SDLVPRGSP)”, the “recognition by mAb G196 in Western blot” value [1] is reported as “detected”.

For `N=C(N)NCCC[C@H](N)C(=O)O` [Arg], the “dissociation of FLAG-tagged proteins from column” value [2] is given as “effectively dissociate FLAG-tagged proteins”.

B1: G196 antigen binding fragment (Fab) (Fab, V domains shown)
VH: QVKLQESGAELVKPGASVKLSCKASGYTFTNYWMHWVKLRPGQGFEWIGEINPSNGGSNYNEKFKRKATLTVDKSSSTAYMQLSSLTSEDSAVFYCSIWDSYFDYWGQGTTLTVSS
VL: NIVMTQSPKSMSMSVGERVTLTCKASENVVTYVSWYQQKPEQSPKLLIYGASNRYTGVPDRFTGSGSATDFTLTISSVQAEDLADYHCGQGYSYPYTFGGGTKLEIK
notes: Fab part of the heavy chain of m1; chain in PDB 5H2B; as the light chain of m1; also called G196 Fab; G196 IgG Fab; source: purified mAb G196 IgG fragmented using papain, Fab purified by protein A chromatography
For B1, the Kd [3] was 1.25 ± 0.77 nM, the dH [3] was -15.3 kcal/mol and the “stoichiometry N” value [3] was 1.2 ± 0.05.
